Test results published in patent US7304034.

What was measured:
[1] = biological target: RAGE on RAW 264.7 cells (mouse (murine RAW 264.7 cells)) (UniProt Q62151); assay: cell-based or functional assay
[2] = biological target: cell surface binding sites for HMGB1 on RAW 264.7 cells; assay: 125I-HMGB1 cell surface binding to RAW 264.7 cells, 2 hours at 4 C, no competitor
[3] = biological target: cell surface binding sites for HMGB1 on RAW 264.7 cells; assay: cell-based or functional assay

Sequence of RAGE on RAW 264.7 cells (mouse (murine RAW 264.7 cells)) (Q62151 23-402): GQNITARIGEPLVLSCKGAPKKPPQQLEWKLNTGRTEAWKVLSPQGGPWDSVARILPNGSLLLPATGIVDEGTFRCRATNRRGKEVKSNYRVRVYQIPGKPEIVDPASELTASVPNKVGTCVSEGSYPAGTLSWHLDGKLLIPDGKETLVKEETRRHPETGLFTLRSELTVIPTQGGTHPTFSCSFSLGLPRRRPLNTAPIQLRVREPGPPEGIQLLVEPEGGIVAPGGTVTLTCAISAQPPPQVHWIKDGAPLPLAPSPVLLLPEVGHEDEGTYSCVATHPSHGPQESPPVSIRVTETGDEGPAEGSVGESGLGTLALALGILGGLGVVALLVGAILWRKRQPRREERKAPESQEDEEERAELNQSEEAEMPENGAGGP

## Recombinant full length human HMGB1 (wild type HMGB1) (from UniProt A9RA84 1-215) (ligand)
[1]
  maximum inhibition of HMG-1 signaling (TNF release from RAW 264.7 cells) by anti-RAGE antibody: 40%
[2]
  total counts obtained in the absence of unlabeled HMGB1 proteins (CPM/well): 2.38e+06 CPM/well

## HMGB1 A box (Amino terminus + A Box mutant of human HMGB1) (from UniProt A9RA84 1-85)
[3]
  inhibition of HMGB1 (1 µg/ml) induced TNF release from RAW 264.7 cells, apparent EC50: 7.5 µg/mL
